Measured values: US7153676B1, “Transacylases of the paclitaxel biosynthetic pathway” (priority 1999, dated 2006)
Where “and” joins values, the source holds several entries; their conditions need not be identical. Equal values may be shown once.

T1: taxadienol acetyl transacylase (TAX1) (Taxus cuspidata, UniProt Q9M6F0)
T1 construct: Full-length insert fragments of the relevant plasmids are excised and subcloned in-frame into the expression vector pCWori+; made in house; host or cells: E. coli JM109 (pCWori+)
T1 sequence (Q9M6F0 1-439): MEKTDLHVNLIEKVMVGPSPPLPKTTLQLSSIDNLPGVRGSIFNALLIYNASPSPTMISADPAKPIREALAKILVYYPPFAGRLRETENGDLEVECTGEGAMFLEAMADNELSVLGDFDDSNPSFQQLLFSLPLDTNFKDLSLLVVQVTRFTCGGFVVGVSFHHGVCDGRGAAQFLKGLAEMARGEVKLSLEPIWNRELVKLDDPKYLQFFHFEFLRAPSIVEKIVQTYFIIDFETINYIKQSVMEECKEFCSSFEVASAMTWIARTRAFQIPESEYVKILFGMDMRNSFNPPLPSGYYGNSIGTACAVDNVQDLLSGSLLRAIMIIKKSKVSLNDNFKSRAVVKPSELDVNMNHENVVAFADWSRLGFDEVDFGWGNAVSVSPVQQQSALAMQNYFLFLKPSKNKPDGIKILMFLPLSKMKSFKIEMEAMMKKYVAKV

T2: 10-deacetylbaccatin III-10-O-acetyl transferase (TAX6) (Taxus cuspidata, UniProt Q9M6E2)
T2 construct: to amplify the putative full-length acetyl transferase gene and incorporate NdeI and XbaI restriction sites; made in house; host or cells: E. coli JM109 (pCWori+)
T2 sequence (Q9M6E2 1-440): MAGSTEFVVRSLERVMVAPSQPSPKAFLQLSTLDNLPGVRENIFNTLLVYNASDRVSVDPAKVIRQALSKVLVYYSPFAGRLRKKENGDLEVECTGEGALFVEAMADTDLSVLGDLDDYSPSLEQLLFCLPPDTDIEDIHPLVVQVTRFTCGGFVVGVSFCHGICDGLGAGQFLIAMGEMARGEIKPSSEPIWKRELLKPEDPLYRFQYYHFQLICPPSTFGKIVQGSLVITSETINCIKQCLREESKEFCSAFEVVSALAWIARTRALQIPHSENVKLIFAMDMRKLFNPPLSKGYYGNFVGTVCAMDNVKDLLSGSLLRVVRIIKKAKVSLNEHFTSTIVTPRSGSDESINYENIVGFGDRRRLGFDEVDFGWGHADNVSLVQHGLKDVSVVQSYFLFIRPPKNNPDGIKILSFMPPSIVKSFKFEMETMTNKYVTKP

B1: TAX1: full-length clone, SEQ ID NO: 27/28; encodes Taxus taxadienol acetyl transacylase (protein)
chain: MEKTDLHVNLIEKVMVGPSPPLPKTTLQLSSIDNLPGVRGSIFNALLIYNASPSPTMISADPAKPIREALAKILVYYPPFAGRLRETENGDLEVECTGEGAMFLEAMADNELSVLGDFDDSNPSFQQLLFSLPLDTNFKDLSLLVVQVTRFTCGGFVVGVSFHHGVCDGRGAAQFLKGLAEMARGEVKLSLEPIWNRELVKLDDPKYLQFFHFEFLRAPSIVEKIVQTYFIIDFETINYIKQSVMEECKEFCSSFEVASAMTWIARTRAFQIPESEYVKILFGMDMRNSFNPPLPSGYYGNSIGTACAVDNVQDLLSGSLLRAIMIIKKSKVSLNDNFKSRAVVKPSELDVNMNHENVVAFADWSRLGFDEVDFGWGNAVSVSPVQQQSALAMQNYFLFLKPSKNKPDGIKILMFLPLSKMKSFKIEMEAMMKKYVAKV
B2: TAX6: full-length clone, SEQ ID NO: 44/45; 10-deacetylbaccatin III-10-O-acetyl transferase (protein, listed as Taxus cuspidata)
chain: MAGSTEFVVRSLERVMVAPSQPSPKAFLQLSTLDNLPGVRENIFNTLLVYNASDRVSVDPAKVIRQALSKVLVYYSPFAGRLRKKENGDLEVECTGEGALFVEAMADTDLSVLGDLDDYSPSLEQLLFCLPPDTDIEDIHPLVVQVTRFTCGGFVVGVSFCHGICDGLGAGQFLIAMGEMARGEIKPSSEPIWKRELLKPEDPLYRFQYYHFQLICPPSTFGKIVQGSLVITSETINCIKQCLREESKEFCSAFEVVSALAWIARTRALQIPHSENVKLIFAMDMRKLFNPPLSKGYYGNFVGTVCAMDNVKDLLSGSLLRVVRIIKKAKVSLNEHFTSTIVTPRSGSDESINYENIVGFGDRRRLGFDEVDFGWGHADNVSLVQHGLKDVSVVQSYFLFIRPPKNNPDGIKILSFMPPSIVKSFKFEMETMTNKYVTKP

Key:
[1] = molecular target: T1, taxadienol acetyl transacylase (TAX1); test: recombinant TAX1 expressed in E. coli JM109, taxadienol acetyl transacylase assay; type: biochemical; settings: cell-free extract, radiochemical analysis
Protocol: To determine the identity of the putative taxadienol acetyl transacylase, TAX1 (SEQ ID NO: 28), TAX2 (SEQ ID NO: 26), and TAX6 (SEQ ID NO: 45) were subcloned in-frame into the expression vector pCWori+ (Barnes, Methods Enzymol. 272:3–14, 1996) and expressed in E. coli JM109 cells. The transformed bacteria were cultured and induced with isopropyl β-D-thiogalactoside (IPTG), and cell-free extracts were prepared and evaluated for taxadienol acetyl transacylase activity using the previously developed assay procedures (Walker et al., Arch. Biochem. Biophys. 364:273–279, 1999). Clone TAX1 (corresponding directly to Probe 1) expressed high levels of taxadienol acetyl transacylase activity (20% conversion of substrate to product), as determined by radiochemical analysis; the product of this recombinant enzyme was confirmed as taxadienyl-5α-yl acetate by gas chromatography-mass spectrometry (GC-MS) (FIGS. 5A–5G). […] Neither of the recombinant proteins expressed from TAX1 (SEQ ID NO: 28) or TAX2 (SEQ ID NO: 26) was capable of acetylating the advanced paclitaxel precursor 10-deacetyl baccatin III to baccatin III. […]

[2] = molecular target: T2, 10-deacetylbaccatin III-10-O-acetyl transferase (TAX6); type: biochemical
Protocol: For the enzyme preparation, E. coli cells transformed with the pCWori+ vector harboring the putative DBAT gene were grown overnight at 37° C. in 5 mL Luria-Bertani medium supplemented with ampicillin, and 1 mL of this inoculum was added to and grown in 100 mL Terrific Broth culture medium (6 g bacto-tryptone, Difco Laboratories, Spark, Md., 12 g yeast extract, EM Science, Cherryhill, N.J., and 2 mL gycerol in 500 mL water) supplemented with 1 mM IPTG, 1 mM thiamine HCl and 50 μg ampicillin/mL. After 24 hours, the bacteria were harvested by centrifugation, resuspended in 20 mL of assay buffer (25 mM Mopso, pH 7.4) and then disrupted by sonication at 0–4° C. The resulting homogenate was centrifuged at 15,000 g to remove debris, and a 1 mL aliquot of the supernatant was incubated with 10-deacetylbaccatin III (400 μM) and [2-^3H]acetyl coenzyme A (0.45μCi, 400 μM) for 1 hour at 31° C. The reaction mixture was extracted with ether and the solvent concentrated in vacuo. The crude product (pooled from five such assays) was purified by silica gel thin-layer chromatography (TLC; 70:30 ethyl acetate:hexane).
The activity of TAX6 (SEQ ID NO: 45) was assayed under standard conditions described in Walker et al., Arch. Biochem. Biophys.

Molecule	taxadienol acetyl transacylase activity (conversion of substrate to product) [1] [%]	optimum pH [2]	pH at half-maximal velocities [2]
B1	20		
B2		7.5	6.4 and 7.8
